# Experimental data published in patent US6812210B2, “Urocortin-III and uses thereof” (priority 2001, dated 2004).
# Substitutions are numbered along the chain they refer to. Where no end group is shown, it is not given here.
# Legend:
# [1] = target: T1, CRF binding protein (CRF-BP) (Homo sapiens, UniProt P24387); assay: Binding to CRF binding protein by displacement of [D-125I-Tyr0]-hCRF; conditions: data not shown
# T1 sequence (P24387 25-322): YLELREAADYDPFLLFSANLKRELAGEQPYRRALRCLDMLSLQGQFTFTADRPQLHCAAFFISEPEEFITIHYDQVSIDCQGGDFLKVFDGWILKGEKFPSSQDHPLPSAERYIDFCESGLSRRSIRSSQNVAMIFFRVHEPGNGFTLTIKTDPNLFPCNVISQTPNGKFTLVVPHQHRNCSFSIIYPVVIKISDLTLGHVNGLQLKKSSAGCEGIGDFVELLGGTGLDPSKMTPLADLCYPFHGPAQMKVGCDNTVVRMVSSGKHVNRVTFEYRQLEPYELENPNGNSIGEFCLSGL
# [2] = target: T2, CRF-R1 (Rattus norvegicus, UniProt P35353); assay: cAMP accumulation in primary rat anterior pituitary cells expressing endogenous CRF-R1; assay type: cell-based; conditions: FIG. 3B; Ucn III even at concentrations >1 μM
# T2 construct: cells expressing endogenous CRF-R1 (cultured primary anterior pituitary cells, (5)) or CRF-R2β (A7r5 cells, (27)); endogenous in cells; host or cells: primary rat anterior pituitary cells in culture
# T2 sequence (P35353 24-415): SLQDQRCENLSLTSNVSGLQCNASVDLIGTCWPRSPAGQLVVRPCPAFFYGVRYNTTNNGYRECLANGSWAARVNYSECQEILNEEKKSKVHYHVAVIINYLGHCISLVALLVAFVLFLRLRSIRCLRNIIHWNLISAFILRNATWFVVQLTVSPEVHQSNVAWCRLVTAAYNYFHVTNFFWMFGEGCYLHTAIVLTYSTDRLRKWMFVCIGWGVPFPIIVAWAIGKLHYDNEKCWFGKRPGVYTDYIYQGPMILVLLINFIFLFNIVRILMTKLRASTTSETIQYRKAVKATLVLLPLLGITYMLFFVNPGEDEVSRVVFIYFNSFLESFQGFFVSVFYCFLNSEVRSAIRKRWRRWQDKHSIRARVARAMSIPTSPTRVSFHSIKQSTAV
# Experimental: The abilities of Ucn II and Ucn III to activate adenylate cyclase in cells expressing endogenous CRF-R1 (cultured primary anterior pituitary cells, (5)) or CRF-R2β (A7r5 cells, (27)). Rat aortic smooth muscle cells, A7r5, were plated into 48-well culture dishes and allowed to recover for 48 h. Cells were starved in DMEM/0.2% FBS overnight before the experiment. The cells were preincubated with 0.1 mM 3-isobutyl-1-methylxanthine for 30 min and then exposed to peptides for 20 min at 37° C. Rat anterior pituitary cells were established in culture (28) and treated with test peptides for 45 min at 37° C. Intracellular cAMP was extracted from all cells and measured from triplicate wells using a radioimmunoassay kit (Biomedical Technologies). Potencies were determined using the PRISM […].
# [3] = target: T3, hCRF-R1 (Homo sapiens, UniProt P34998); assay: cAMP accumulation in CHO cells stably expressing hCRF-R1; assay type: cell-based; conditions: 1 μM
# T3 construct: expressed in transfected cells
# T3 sequence (P34998 24-415): T2 sequence (P35353 24-415) with R6H, N9S, T13A, V16I, V153M, A163G, V209I, H229Y, R356H
# Experimental: The medium was changed at least 2 h before treatments to DMEM/0.1% FBS. The cells were preincubated with 0.1 mM 3-isobutyl-1-methylxanthine for 30 min and then exposed to peptides for 20 min at 37° C.
# [4] = test system: rats; assay: Intravenous Ucn III in rats: glucagon secretion and blood sugar; assay type: in vivo, rat; conditions: given intravenously to rats
# Description: It has been shown by others that glucagon can act directly on the beta cell to stimulate insulin secretion in a paracrine manner. Thus, Ucn III may provide a means for the beta cell to signal the alpha cell, which produces glucagon which would then, in turn, drive the beta cell. Thus, Ucn III (or any CRF-R2 agonist) may be used to stimulate and sustain islet functions.
Substance,Affinity for CRF-BP [1],Ability to increase cyclic AMP in cultured pituitary cells expressing CRF-R1 [2],Activation of CRF-R1 (cAMP) at very high doses [3],Glucagon secretion [4],Blood sugar levels ([4]; subsequent to glucagon rise)
"urocortin II (IVLSLDVPIGLLQILLEQARARAAREQATTNARILARVGHC; ends and bridges not checked; UniProt Q96RP3 72-112, looked up) [Ucn II, urocortin II, species (human or mouse) not specified at the place, reference compound]",neither Ucn II nor Ucn III exhibit appreciable affinity,low potency,,,
"urocortin III (FTLSLDVPTNIMNLLFNIAKAKNLRAQAAANAHLMAQI; ends and bridges not checked; UniProt Q969E3 120-157, looked up) [Ucn III, urocortin III, species (human or mouse) not specified at the place]",neither Ucn II nor Ucn III exhibit appreciable affinity,inactive,no activation,rapidly stimulated glucagon secretion,elevates blood sugar levels
urocortin [Urocortin (rat)],subnanomolar,,,,
